Target: PRX302 (modified proaerolysin in which the furin site is replaced with a PSA-specific cleavage site) (Aeromonas hydrophilia (engineered variant)) (UniProt P09167)
Test: cell-based or functional assay

**Q.** With “Prostate Specific Antigen (PSA), enzymatically active (from UniProt P07288 25-261) (enzyme)” as the substance, how does the hemolysis (red blood cells) after pre-incubation of PRX302 with enzymatically active PSA in aqueous buffer read?
**A.** 45 % hemolysis

— patent US20210205408A1
